Assay results: article PMC6277958, “Crystal structure of the Agrobacterium tumefaciens type VI effector–immunity complex” (Acta Crystallographica. Section F, Structural Biology …, 2018)

Molecular target: the molecule itself
Experiment: SEC; AtTai4 alone in solution; conditions not told (purification used a HiLoad Superdex 75 column)

B1: T6SS amidase immunity protein 4 (Tai4) from Agrobacterium tumefaciens, residues 26–129, expressed alone from pCold-GST (natural protein, UniProt A9CGG9 26-129, looked up)
chain: AERTWIFSGAELKQAIEGKLAPDVSDPEMRRLVSVAKSSAYIAGVADLTSGSDWCGAGAVAPHELTDRIYTYLGDMPAEKLDEQAATLVREALKVSFPCEQKSN
notes: codon-optimized synthetic gene; His6-GST tag removed with Turbo3C protease; Disulfide bond between Cys80 and Cys124 in each protomer; also called AtTai4; ATU4346; source: E. coli Rosetta 2 (DE3), purified (Ni-NTA, Resource Q, HiLoad Superdex 75); not shown: His6, N-terminal, cleaved; GST, N-terminal, cleaved
stoichiometry N: 2
